Data on one substance can be found in paper PMC2889002.

The target in the assay is GST fusion of the full-length cytoplasmic loop of connexin43 (GST-CLFL) (UniProt P23242). Briefly: pull-down.
Chain of UniProt P23242 (P23242 98-155): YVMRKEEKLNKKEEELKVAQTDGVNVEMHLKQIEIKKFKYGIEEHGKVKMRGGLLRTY

On to “β-tubulin (Tubulin β5/2c) of mouse brain (from UniProt P99024 1-444) (natural protein)”, for which the affinity relative to that of Cx43-CT for β-tubulin came to 0.2 fold.
